Assay results from publication PMC7299281.

Molecular target: prefusion S protein of SARS-CoV (SARS-CoV)

Substance | IC50 of neutralisation of SARS-CoV pseudovirus
COVA1-16 (antibody) | 2.5 µg/mL
COVA2-02 (antibody) | 0.61 µg/mL
